Results published in patent publication US5792742A, “Fibrin-binding peptide fragments of fibronectin” (New York University, priority 1994, dated 1998).
[ ]: non-standard residue; d: D form. pGlu = O=C1CC[C@@H](C(=O)O)N1

B1: tPA preparation of Husain et al.: high-affinity plasminogen activator preparation of Husain et al. (1981) (protein, UniProt P00750 36-562, looked up)
Tissue-type plasminogen …: SYQVICRDEKTQMIYQQHQSWLRPVLRSNRVEYCWCNSGRAQCHSVPVKSCSEPRCFNGGTCQQALYFSDFVCQCPEGFAGKCCEIDTRATCYEDQGISYRGTWSTAESGAECTNWNSSALAQKPYSGRRPDAIRLGLGNHNYCRNPDRDSKPWCYVFKAGKYSSEFCSTPACSEGNSDCYFGNGSAYRGTHSLTESGASCLPWNSMILIGKVYTAQNPSAQALGLGKHNYCRNPDGDAKPWCHVLKNRRLTWEYCDVPSCSTCGLRQYSQPQFRIKGGLFADIASHPWQAAIFAKHRRSPGERFLCGGILISSCWILSAAHCFQERFPPHHLTVILGRTYRVVPGEEEQKFEVEKYIVHKEFDDDTYDNDIALLQLKSDSSRCAQESSVVRTVCLPPADLQLPDWTECELSGYGKHEALSPFYSERLKEAHVRLYPSSRCTSQHLLNRTVTDNMLCAGDTRSGGPQANLHDACQGDSGGPLVCLNDGRMTLVGIISWGLGCGQKDVPGVYTKVTNYLDWIRDNMRP
B2: ^1 F1.^2 F1: recombinant fibronectin module pair, first and second type 1 modules, amino acids 1-106; negative control (protein)
chain: QAQQMVQPQSPVAVSQSKPGCYDNGKHYQINQQWERTYLGNALVCTCYGGSRGFNCESKPEAEETCFDKYTGNTYRVGDTYERPKDSMIWDCTCIGAGRGRISCTI
modifications: N-terminal pyroglutamate; the major species lacks the NH2-terminal Gln-Ala dipeptide and its new N-terminal Gln is also pyroglutamate
notes: recombinant fibronectin module pair, first and second type 1 modules, amino acids 1-106; negative control
B3: ^1 F1: recombinant first type 1 module of fibronectin, amino acids 1-61 (protein)
chain: [pGlu]AQQMVQPQSPVAVSQSKPGCYDNGKHYQINQQWERTYLGNALVCTCYGGSRGFNCESKPE
modifications: not fully specified; also: major species lacks N-terminal Gln-Ala, its new N-terminal Gln3 is pyroglutamate

What was measured:
fibrin [1] = conditions: Husain et al. 1981; cited from earlier work
fibrin [2] = conditions: 0-10 μM competitor, biotinylated Fn 2.3 nM
Description: Since the anti-Fn detection system described for the ELISA above could not be used in Fn competition assays employing the intact Fn molecule or the 25.8 kDa proteolytic fragment, purified Fn was biotinylated using water soluble NHS-LC-Biotin (Pierce Chemm. Co.; according to the manufacturer's instructions) and binding to fibrin detected by alkaline phosphatase conjugated streptavidin (diluted 1/500 in FBBT/BSA) for 1 hour at 22° C., followed by the addition of p-nitrophenyl phosphate, as described above. To ensure that the biotinylation of the Fn had not affected its ability to bind to fibrin, fibrin-binding activity was tested by incubating increasing concentrations of biotinylated Fn (10-300 ng/0.1 ml FBB) with the fibrin-coated wells (200 ng) and detected (see FIG. 28A) using alkaline phosphatase-conjugated streptavidin and the reaction developed as described for Direct Elisa.
To compare the relative fibrin-binding affinities of the ^4 F1.^5 F1 recombinant module pair and the 25.9 kDa proteolytic fragment (^1 F1-^5 F1) with that of the native Fn molecule, these purified proteins were competed with biotinylated plasma Fn for binding to fibrin coated wells and the extent of inhibition of binding assessed by incubation with alkaline phosphatase-conjugated streptavidin. […] Biotinylated Fn (100 ng/0.1 ml FBB: 2.3 nM) was combined with increasing concentrations (0-10 μM) of either unlabeled Fn, the 25.9 kDa proteolytic fragment, or the separate ^4 F1.^5 F1, and ^10 F1 recombinant modules and incubated with the fibrin-coated microtiter wells for 1 hour at 22° C. […] Bound biotinylated Fn was quantitated as described above.

fibrin [3] = assay: Fibrin-SEPHAROSE affinity chromatography (binding and elution); parameters: species or system bovine
Description: Bovine fibrinogen was cross-linked to CNBr-activated SEPHAROSE™ (5 mg/ml beads) according to the manufacturer's instructions. Coupled fibrinogen was subsequently converted to fibrin by incubation with human thrombin to a final concentration of 5 NIH units/ml and 100 K.I. (kallikrein inhibitory) units/ml of aprotinin (in 0.05M Tris-HCI buffer, pH 7.6, containing 0.1M NaCl and 0.01M EDTA) for three hours, at room temperature (Gold, et al. (1983) Biochemistry 22, 4113-4119).
1.0M NaCl in 0.05M tris buffer, pH 8.0.
The fibrin-binding activity of the proteolytically derived 25.9 kDa fragment of Fn was determined by its ability to bind to a fibrin affinity matrix. […] FBB was used to equilibrate and wash the column. Following warming of the column to 22° C., the column was washed with FBB until absorbance at 280 nm (A280) was less than 0.01, and bound protein eluted with 0.05M Tris-HCl, 0.5M NaCl, 6M urea buffer, pH 7.6.
The module (500 μg/1.0 ml) was incubated for 4 hours (while rotating) at 4° C. in the presence of 1.0 ml fibrin-SEPHAROSE™ (5 mg fibrin/ml SEPHAROSE™ beads) equilibrated in […] Tris-HCl, 0.1M NaCl buffer, pH 7.6.
The 11 KDa peptide (50 μg/0.206 ml) was radiolabeled using the IODO-BEAD method (Pierce Chemical). The peptide was added to one IODO-BEAD in the presence of 100 μCi ^125 I (17.4 Ci/mg, New England Nuclear) and incubated on ice for 10 minutes. […]

fibrin [4] = assay: ELISA: competitive inhibition of fibronectin binding to fibrin by type 1 recombinant modules; conditions: up to 5,000-50,000 molar excess compared to Fn
Description: Fibrin-binding activity was also assessed by an ELISA. Fn was reacted with fibrin-coated microtiter plates and bound Fn was determined by incubation with a polyclonal rabbit anti-Fn antiserum followed by alkaline phosphatase-labeled anti-rabbit Ig. […] Thus, on a mole-per-mole basis, assuming complete attachment of all the fibrinogen applied to the polystyrene plate, total proteolytic conversion to fibrin, and accessibility of the binding sites, 0.8 moles of Fn per mole of fibrin were required to achieve maximum binding (assuming a molecular weight of 340 kDa for the fibrin hexamer and 440 kDa for the Fn dimer).
The recombinant Fn modules were used to inhibit the binding of Fn to the fibrin-coated microtiter plates. […] At this saturating concentration, the binding of Fn to fibrin was inhibited by 70%.

Row | Molecule | arginine concentration eluting from solid phase fibrin (fibrin [1]) [mM] | inhibition of biotinylated Fn binding (non-fibrin-binding modules) (fibrin [2]) [%] | % of protein that did not bind to fibrin-Sepharose (unbound fraction) (fibrin [3]) [%] | binding to fibrin-Sepharose (fibrin [3]) | inhibition of the binding of Fn to fibrin (non-binding modules) (fibrin [4]) [%]
1 | B1 | 0.2 |  |  |  | 
2 | B2 |  | 15 | ~100 | none was present | < 20
3 | B3 |  |  |  |  | < 20
